Patent EP4721754A1 (Hangzhou Sciwind Biosciences Co., Ltd., dated 2026)
Numbered stars: 1 amine (or outer) side, 2 acyl side, 3 side chain; on linkers, the order of the positions; unused ones are H or OH. Bridge positions count the residues as written; N and C are the ends. Square brackets hold non-standard residues; d marks the D form. Primed or numbered codes have the meaning given here. Ends that are not written are not given here. * marks the point of attachment. C22 diacid′ = docosanedioic acid (C22 diacid) acyl; C20 diacid = O=C(O)CCCCCCCCCCCCCCCCCCC(=O)*; C18 diacid = O=C(O)CCCCCCCCCCCCCCCCC(=O)*; C16 diacid = O=C(O)CCCCCCCCCCCCCCC(=O)*; γGlu = O=C(O)[C@H](CCC(=O)[*:2])N[*:1]; βAsp = O=C(O)[C@H](CC(=O)[*:2])N[*:1]; Hyp = O=C(O)[C@@H]1C[C@@H](O)CN1; Inp′ = not defined here; AEEA = NCCOCCOCC(=O)O

T1: amylin receptor (hAMY3R) (human, UniProt P30988 25-474; O60896 24-148)
T1 sequence (looked up) 1: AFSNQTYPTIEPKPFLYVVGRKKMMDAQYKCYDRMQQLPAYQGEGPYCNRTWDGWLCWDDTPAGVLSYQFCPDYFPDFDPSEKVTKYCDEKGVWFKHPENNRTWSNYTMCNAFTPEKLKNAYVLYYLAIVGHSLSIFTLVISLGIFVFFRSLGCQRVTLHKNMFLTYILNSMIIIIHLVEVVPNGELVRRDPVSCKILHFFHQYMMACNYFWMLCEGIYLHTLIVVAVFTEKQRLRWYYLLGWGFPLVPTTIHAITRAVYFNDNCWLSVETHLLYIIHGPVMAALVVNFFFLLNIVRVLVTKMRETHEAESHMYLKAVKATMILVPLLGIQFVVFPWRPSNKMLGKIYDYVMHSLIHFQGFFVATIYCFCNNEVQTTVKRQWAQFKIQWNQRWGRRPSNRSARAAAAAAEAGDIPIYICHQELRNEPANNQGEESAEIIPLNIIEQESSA
T1 sequence (looked up) 2: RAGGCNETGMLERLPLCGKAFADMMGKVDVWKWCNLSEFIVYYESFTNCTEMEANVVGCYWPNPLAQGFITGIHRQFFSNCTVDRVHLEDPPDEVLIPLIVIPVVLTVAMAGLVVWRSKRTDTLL

T2: calcitonin receptor (hCTR) (human, UniProt P30988 25-474)
T2 sequence (looked up): T1 sequence (looked up) 1


Experiments:
Assay in all cases: cell-based or functional assay
amylin receptor (hAMY3R) [1] = biological target: T1, amylin receptor (hAMY3R)
[2] = biological target: T2, calcitonin receptor (hCTR)
amylin receptor (hAMY3R) [3] = biological target: T1, amylin receptor (hAMY3R); remark: listed apart in the source
[4] = biological target: T2, calcitonin receptor (hCTR); remark: listed apart in the source
amylin receptor (hAMY3R) [5] = biological target: T1, amylin receptor (hAMY3R); remark: listed apart in the source

Row | Binder | EC50, CRE-luciferase reporter in amylin receptor/CRE-luc CHO cells, 24 h (amylin receptor (hAMY3R) [1]) | EC50, CRE-luciferase reporter in calcitonin receptor/CRE-luc CHO cells, 24 h [2] | Fold change in activity against hAMY3R (benchmark D1) (amylin receptor (hAMY3R) [3]) | Fold change in activity against hCTR (benchmark D1) [4] | further results
1 | ASQLSTAVLGRLSDELHRLQDYPRTDVGSGSP (not fully specified; N terminus: C20 diacid + βAsp+2 AEEAs) [M25] | 17 pM | 138 pM | 2.12 fold | 0.623 fold | 
2 | {C16 diacid-γGlu}-ASQLSTAVLGRLSDELHRLQDYPRTDVGSGSP-NH2 (ends and bridges not checked) [M9] | 2 pM | 120 pM |  |  | 
3 | {C18 diacid}-D[AEEA][AEEA]ASQLSTAVLGRLSDELHRLQDYPRTDVGSGSP-NH2 [M26] | 8 pM | 24 pM |  |  | 
4 | ASQLSTAVLGRLSDELHRLQDYPRTDVGSGSP (not fully specified; N terminus: C20 diacid + αGlu) [M10] | 69 pM |  |  |  | 
5 | ASQLSTAVLGRLSDELHRLQDYPRTDVGSGSP (not fully specified; N terminus: C20 diacid + Trx+2 AEEAs) [M27] | 4 pM |  | 9 fold | 0.161 fold | hCTR EC50, CRE-luciferase reporter cells [4]: 533 pM
6 | {C18 diacid}-EASQLSTAVLGRLSDELHRLQDYPRTDVGSGSP-NH2 [M11] | 16 pM | 71 pM | 2.25 fold | 1.21 fold | 
7 | ASQLSTAVLGRLSDELHRLQDYPRTDVGSGSP (N terminus: C18 diacid + Trx+2 AEEAs) [M28] | 2 pM |  | 18 fold | 0.966 fold | hCTR EC50, CRE-luciferase reporter cells [4]: 89 pM
8 | ASQLSTAVLGRLSDELHRLQDYPRTDVGSGSP (not fully specified; N terminus: C20 diacid + βAsp) [M12] | 17 pM | 73 pM | 2.12 fold | 1.18 fold | 
9 | ASQLSTAVLGRLSDELHRLQDYPRTDVGSGSP (not fully specified; N terminus: C20 diacid + Inp+2 AEEAs) [M29] | 6 pM |  | 6 fold | 0.551 fold | hCTR EC50, CRE-luciferase reporter cells [4]: 156 pM
10 | {C18 diacid}-DASQLSTAVLGRLSDELHRLQDYPRTDVGSGSP-NH2 [M13] | 16 pM | 85 pM |  |  | 
11 | ASQLSTAVLGRLSDELHRLQDYPRTDVGSGSP (not fully specified; N terminus: C20 diacid + yGlu+8 AEEAs) [M21] | 44 pM |  |  |  | 
12 | {C18 diacid-Inp′-AEEA-AEEA}-ASQLSTAVLGRLSDELHRLQDYPRTDVGSGSP-NH2 [M30] | 1 pM |  | 36 fold | 0.848 fold | fold increase of agonistic activity against the amylin receptor, compared with M17 (amylin receptor (hAMY3R) [5]): ~70 fold; hCTR EC50, CRE-luciferase reporter cells [4]: 101 pM
13 | ASQLSTAVLGRLSDELHRLQDYPRTDVGSGSP (not fully specified; N terminus: C20 diacid + Trx) [M14] | 456 pM | 587 pM | 0.079 fold | 0.147 fold | 
14 | {C20 diacid-AEEA-AEEA}-KCNTATCATQRLADFLRHSSNNLKPILPPTNVGSNT[Hyp]-NH2 (disulfide 2-7 (inferred); ends not checked) [N1] | 16 pM |  |  |  | 
15 | ASQLSTAVLGRLSDELHRLQDYPRTDVGSGSP (N terminus: C18 diacid + Trx) [M15] | 119 pM | 469 pM | 0.303 fold | 0.183 fold | 
16 | {C20 diacid-βAsp-AEEA-AEEA}-KCNTATCATQRLADFLRHSSNNLKPILPPTNVGSNT[Hyp]-NH2 (disulfide 2-7 (inferred); ends not checked) [N2] |  |  |  |  | EC50, CRE-luciferase reporter in amylin receptor/CRE-luc CHO cells (incubation presumably 4 h, per paragraph 38) (amylin receptor (hAMY3R) [1]): 9 pM; EC50, CRE-luciferase reporter in amylin receptor/CRE-luc CHO cells (incubation presumably 24 h) (amylin receptor (hAMY3R) [1]): 40 pM
17 | ASQLSTAVLGRLSDELHRLQDYPRTDVGSGSP (not fully specified; N terminus: C20 diacid + Inp) [M16] | 82 pM | 376 pM | 0.439 fold | 0.229 fold | 
18 | {C18 diacid-Inp′}-ASQLSTAVLGRLSDELHRLQDYPRTDVGSGSP-NH2 [M17] | 63 pM | 259 pM | 0.571 fold | 0.332 fold | 
19 | {C18 diacid-βAsp-AEEA-AEEA}-KCNTATCATQRLADFLRHSSNNLKPILPPTNVGSNT[Hyp]-NH2 (disulfide 2-7 (inferred); ends not checked) [N3] |  |  |  |  | EC50, CRE-luciferase reporter in amylin receptor/CRE-luc CHO cells (incubation presumably 4 h, per paragraph 38) (amylin receptor (hAMY3R) [1]): 1 pM
20 | ASQLSTAVLGRLSQELHRLQDYPRTDVGSGSP-NH2 [M5] | 33 pM |  |  |  | 
21 | ASQLSTAVLGRLSDELHRLQDYPRTDVGSGSP (not fully specified; N terminus: C20 diacid + yGlu+2 AEEAs) [M18] |  | 69 pM | 2.25 fold | 1.25 fold | hAMY3R EC50, CRE-luciferase reporter cells (amylin receptor (hAMY3R) [3]): 16 pM
22 | {C20 diacid-γGlu}-ASQLSTAVLGRLSDELHRLQDYPRTDVGSGSP-NH2 (ends and bridges not checked) [M6] | 17 pM | 28 pM | 2.12 fold | 3.07 fold | 
23 | {C22 diacid′-γGlu}-ASQLSTAVLGRLSDELHRLQDYPRTDVGSGSP-NH2 (ends and bridges not checked) [M7] | 22 pM | 194 pM |  |  | 
24 | {C18 diacid}-E[AEEA][AEEA]ASQLSTAVLGRLSDELHRLQDYPRTDVGSGSP-NH2 [M24] | 7 pM | 81 pM | 5.14 fold | 1.06 fold | 
25 | {C18 diacid-γGlu}-ASQLSTAVLGRLSDELHRLQDYPRTDVGSGSP-NH2 (ends and bridges not checked) [M8] | 16 pM | 165 pM |  |  | 
26 | {C18 diacid-γGlu-AEEA-AEEA}-ASQLSTAVLGRLSDELHRLQDYPRTDVGSGSP-NH2 [M22] | 15 pM |  |  |  | 
27 | ASQLSTAVLGRLSDELHRLQDYPRTDVGSGSP (not fully specified; N terminus: C20 diacid + αGlu+2 AEEAs) [M23] | 17 pM |  |  |  | 
